Source: article PMC5993198

Target: rBac-RelA (human? (hRelA; expressed in Sf9), UniProt Q04206 1-551)
Experiment: fluorescence anisotropy

Sequence of rBac-RelA (Q04206 whole entry): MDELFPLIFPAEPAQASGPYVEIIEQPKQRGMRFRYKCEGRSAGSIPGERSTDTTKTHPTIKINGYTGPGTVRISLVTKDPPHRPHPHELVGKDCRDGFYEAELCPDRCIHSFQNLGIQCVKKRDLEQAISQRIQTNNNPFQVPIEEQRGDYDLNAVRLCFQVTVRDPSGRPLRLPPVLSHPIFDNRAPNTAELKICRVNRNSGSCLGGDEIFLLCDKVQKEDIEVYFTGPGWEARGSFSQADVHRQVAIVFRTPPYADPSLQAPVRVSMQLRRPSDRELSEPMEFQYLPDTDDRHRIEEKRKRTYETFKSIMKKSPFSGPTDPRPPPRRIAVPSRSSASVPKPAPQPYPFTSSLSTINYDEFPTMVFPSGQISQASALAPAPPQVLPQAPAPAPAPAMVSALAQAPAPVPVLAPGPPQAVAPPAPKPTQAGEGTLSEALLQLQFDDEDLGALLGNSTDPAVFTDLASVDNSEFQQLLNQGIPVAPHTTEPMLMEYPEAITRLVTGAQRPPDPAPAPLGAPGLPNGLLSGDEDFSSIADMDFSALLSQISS

B1: fluorescein ssDNA negative control containing κB site (ssDNA)
DNA: ATCGTGGGAAAGTTTCTGGATATTCCCTTGGA
B1: no binding.
